Reference: patent US20140342369A1

Key:
[1] = target: Solute carrier family 2, facilitated glucose transporter member 3 (Slc2a3) (mouse) (UniProt P32037); experiment: anti-HA pulldown of tagged Gpr107 from whole cell lysate, mass spectrometry of eluted proteins
[2] = target: Calnexin (Canx1) (mouse) (UniProt P35564); experiment: as above
[3] = target: LYRIC (Mtdh, Metadherin) (mouse) (UniProt Q80WJ7); experiment: as above
[4] = target: Guanine nucleotide-binding protein G(i) subunit alpha-2 (Gnai2) (mouse) (UniProt P08752); experiment: as above
Chain of UniProt P08752 (P08752 2-355 limits assumed): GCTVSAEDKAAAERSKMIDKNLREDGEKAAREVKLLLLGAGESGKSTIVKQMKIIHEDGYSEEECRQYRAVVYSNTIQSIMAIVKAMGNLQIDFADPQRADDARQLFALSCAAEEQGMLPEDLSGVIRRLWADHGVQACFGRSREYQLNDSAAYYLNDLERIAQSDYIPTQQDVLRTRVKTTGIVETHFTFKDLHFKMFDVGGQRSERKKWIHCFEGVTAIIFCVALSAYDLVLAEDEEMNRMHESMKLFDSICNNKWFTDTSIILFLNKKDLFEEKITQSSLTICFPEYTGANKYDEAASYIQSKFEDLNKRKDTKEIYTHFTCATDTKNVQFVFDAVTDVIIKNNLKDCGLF

[5] = target: Neurabin-1 (Ppp1r9a) (mouse) (UniProt Q7TN74); experiment: as above
Chain of UniProt Q7TN74 (Q7TN74 entry or part of it): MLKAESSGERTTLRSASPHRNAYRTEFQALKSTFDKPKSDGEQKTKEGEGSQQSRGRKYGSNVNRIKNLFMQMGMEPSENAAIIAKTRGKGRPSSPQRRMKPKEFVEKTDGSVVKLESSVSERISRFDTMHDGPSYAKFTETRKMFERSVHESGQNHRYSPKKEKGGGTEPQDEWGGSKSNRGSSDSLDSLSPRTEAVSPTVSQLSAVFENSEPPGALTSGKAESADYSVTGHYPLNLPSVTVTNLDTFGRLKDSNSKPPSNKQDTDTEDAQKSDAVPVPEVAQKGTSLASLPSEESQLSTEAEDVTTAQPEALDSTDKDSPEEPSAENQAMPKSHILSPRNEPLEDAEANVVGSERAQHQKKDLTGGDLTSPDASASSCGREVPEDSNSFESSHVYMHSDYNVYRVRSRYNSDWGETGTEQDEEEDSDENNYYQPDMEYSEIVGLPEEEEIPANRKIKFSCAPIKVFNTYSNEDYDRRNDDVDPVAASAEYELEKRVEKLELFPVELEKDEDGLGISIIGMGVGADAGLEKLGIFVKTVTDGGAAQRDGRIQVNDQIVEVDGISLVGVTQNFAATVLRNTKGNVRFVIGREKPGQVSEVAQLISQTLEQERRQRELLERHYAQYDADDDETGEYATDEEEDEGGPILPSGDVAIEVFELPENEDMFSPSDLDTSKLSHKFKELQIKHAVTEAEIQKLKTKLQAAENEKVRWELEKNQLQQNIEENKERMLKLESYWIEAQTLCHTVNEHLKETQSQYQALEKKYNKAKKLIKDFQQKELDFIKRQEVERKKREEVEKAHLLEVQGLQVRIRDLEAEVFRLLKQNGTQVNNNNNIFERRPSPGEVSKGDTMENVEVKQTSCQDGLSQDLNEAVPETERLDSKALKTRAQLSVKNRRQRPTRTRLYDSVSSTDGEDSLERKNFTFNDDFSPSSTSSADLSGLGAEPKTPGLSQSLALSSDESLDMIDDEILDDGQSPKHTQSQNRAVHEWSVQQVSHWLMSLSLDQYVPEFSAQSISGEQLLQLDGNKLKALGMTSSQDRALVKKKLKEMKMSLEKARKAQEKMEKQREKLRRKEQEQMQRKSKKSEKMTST

[6] = target: Dolichyl-diphosphooligosaccharide--protein glycosyltransferase SU 1 (Rpn1) (mouse) (UniProt Q91YQ5); experiment: as above
Chain of UniProt Q91YQ5 (Q91YQ5 26-608 limits assumed): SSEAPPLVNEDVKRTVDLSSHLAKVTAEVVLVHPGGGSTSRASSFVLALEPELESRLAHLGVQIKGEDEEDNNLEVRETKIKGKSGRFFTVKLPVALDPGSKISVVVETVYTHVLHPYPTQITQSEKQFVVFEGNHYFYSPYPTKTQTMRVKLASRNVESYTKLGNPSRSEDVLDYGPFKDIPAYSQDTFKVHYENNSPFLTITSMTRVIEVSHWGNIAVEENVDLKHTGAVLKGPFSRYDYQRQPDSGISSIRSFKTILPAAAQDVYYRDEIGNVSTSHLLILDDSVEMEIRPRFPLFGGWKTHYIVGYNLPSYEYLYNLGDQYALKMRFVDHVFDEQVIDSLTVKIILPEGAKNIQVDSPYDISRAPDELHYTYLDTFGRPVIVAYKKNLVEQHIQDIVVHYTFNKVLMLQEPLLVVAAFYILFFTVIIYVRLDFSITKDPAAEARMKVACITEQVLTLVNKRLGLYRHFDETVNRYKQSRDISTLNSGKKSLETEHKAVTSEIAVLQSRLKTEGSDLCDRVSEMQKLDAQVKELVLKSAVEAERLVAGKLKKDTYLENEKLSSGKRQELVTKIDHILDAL

[7] = target: Neurabin-2, Spinophilin (Ppp1r9b) (mouse) (UniProt Q6R891); experiment: as above
Chain of UniProt Q6R891 (Q6R891 whole entry): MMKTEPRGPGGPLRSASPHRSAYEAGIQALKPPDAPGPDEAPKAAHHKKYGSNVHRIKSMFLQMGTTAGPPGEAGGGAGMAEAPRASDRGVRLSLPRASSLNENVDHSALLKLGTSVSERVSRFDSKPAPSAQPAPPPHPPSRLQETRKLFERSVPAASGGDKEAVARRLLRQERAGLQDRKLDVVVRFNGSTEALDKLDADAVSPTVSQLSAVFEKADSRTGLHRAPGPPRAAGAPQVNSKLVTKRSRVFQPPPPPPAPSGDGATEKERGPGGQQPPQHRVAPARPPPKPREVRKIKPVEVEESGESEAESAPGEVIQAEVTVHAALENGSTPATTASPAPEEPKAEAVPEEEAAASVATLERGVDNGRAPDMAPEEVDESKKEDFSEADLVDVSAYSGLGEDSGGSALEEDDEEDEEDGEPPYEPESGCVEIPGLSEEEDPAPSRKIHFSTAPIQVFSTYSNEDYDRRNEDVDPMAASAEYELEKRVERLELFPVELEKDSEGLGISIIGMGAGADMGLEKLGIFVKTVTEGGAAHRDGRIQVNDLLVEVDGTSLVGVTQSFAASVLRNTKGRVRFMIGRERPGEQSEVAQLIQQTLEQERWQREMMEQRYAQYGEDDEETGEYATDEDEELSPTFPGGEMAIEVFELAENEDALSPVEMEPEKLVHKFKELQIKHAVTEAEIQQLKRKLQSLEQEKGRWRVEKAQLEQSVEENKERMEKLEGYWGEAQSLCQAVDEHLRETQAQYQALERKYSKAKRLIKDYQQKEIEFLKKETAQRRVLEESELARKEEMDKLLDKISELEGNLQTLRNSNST

[8] = target: Solute carrier family 2, facilitated glucose transporter member 3 (Slc2a3) (mouse) (UniProt P32037); experiment: control pulldown (background; control not described), mass spectrometry of eluted proteins
[9] = target: Calnexin (Canx1) (mouse) (UniProt P35564); experiment: as above
[10] = target: LYRIC (Mtdh, Metadherin) (mouse) (UniProt Q80WJ7); experiment: as above
[11] = target: Guanine nucleotide-binding protein G(i) subunit alpha-2 (Gnai2) (mouse) (UniProt P08752); experiment: as above
[12] = target: Neurabin-1 (Ppp1r9a) (mouse) (UniProt Q7TN74); experiment: as above
[13] = target: Dolichyl-diphosphooligosaccharide--protein glycosyltransferase SU 1 (Rpn1) (mouse) (UniProt Q91YQ5); experiment: as above
[14] = target: Neurabin-2, Spinophilin (Ppp1r9b) (mouse) (UniProt Q6R891); experiment: as above

Chain of UniProt Q80WJ7 (Q80WJ7 whole entry): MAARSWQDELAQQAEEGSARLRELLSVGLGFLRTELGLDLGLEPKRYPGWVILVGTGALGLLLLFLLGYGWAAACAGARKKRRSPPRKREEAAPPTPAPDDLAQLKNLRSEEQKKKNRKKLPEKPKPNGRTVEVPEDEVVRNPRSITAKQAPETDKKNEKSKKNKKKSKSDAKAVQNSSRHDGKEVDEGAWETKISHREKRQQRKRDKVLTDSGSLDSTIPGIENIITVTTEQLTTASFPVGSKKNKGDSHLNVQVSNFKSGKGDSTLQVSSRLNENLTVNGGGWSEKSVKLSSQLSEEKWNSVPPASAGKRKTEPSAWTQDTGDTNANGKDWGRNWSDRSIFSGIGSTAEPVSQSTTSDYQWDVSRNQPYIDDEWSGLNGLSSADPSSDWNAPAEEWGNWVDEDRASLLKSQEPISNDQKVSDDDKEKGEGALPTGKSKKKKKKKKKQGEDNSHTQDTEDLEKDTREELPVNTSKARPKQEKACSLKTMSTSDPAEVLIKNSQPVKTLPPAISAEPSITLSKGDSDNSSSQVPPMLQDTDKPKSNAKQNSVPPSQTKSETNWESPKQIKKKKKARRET
Chain of UniProt P35564 (P35564 21-591 limits assumed): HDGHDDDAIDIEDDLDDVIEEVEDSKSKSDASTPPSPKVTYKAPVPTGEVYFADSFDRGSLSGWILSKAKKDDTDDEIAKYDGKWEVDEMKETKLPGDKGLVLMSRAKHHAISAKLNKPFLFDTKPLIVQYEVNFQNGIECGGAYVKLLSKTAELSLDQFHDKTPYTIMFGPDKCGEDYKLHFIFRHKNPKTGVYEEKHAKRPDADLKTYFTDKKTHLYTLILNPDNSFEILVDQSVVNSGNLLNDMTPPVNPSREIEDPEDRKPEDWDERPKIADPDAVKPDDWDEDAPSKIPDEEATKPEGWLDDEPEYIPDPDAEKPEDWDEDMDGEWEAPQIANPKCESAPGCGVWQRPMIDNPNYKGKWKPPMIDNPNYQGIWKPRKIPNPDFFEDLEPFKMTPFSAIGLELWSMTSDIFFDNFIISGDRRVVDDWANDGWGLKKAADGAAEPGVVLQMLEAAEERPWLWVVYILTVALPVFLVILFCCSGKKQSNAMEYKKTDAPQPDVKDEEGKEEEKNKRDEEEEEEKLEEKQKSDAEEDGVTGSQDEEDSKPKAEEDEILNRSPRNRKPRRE
Chain of UniProt P32037 (P32037 whole entry): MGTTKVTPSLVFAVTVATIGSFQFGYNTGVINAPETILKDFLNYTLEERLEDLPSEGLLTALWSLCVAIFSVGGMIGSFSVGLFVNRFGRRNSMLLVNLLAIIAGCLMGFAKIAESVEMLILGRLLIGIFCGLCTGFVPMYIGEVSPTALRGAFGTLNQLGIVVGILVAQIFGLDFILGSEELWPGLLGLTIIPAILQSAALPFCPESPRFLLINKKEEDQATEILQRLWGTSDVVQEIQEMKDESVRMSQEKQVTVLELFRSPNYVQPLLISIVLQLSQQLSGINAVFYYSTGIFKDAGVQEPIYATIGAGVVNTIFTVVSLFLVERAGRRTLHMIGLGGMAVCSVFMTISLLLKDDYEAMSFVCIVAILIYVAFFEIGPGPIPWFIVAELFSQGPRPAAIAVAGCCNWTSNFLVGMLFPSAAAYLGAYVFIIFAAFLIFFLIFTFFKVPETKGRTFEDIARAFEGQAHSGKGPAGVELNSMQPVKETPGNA

peptides sample [1]: 5 peptides
peptides sample [2]: 7 peptides
peptides sample [4]: 19 peptides
peptides sample [5]: 13 peptides
peptides sample [6]: 8 peptides
peptides sample [7]: 136 peptides
peptides control [8]: 0 peptides
peptides control [9]: 3 peptides
peptides control [11]: 0 peptides
peptides control [12]: 0 peptides
peptides control [13]: 3 peptides
peptides control [14]: 8 peptides
Substance: C-terminally tagged (mCherry, Ha, myc) version of Gpr107 (G protein coupled receptor 107) (from UniProt Q8BUV8 34-551)
peptides sample [3]: 46 peptides
peptides control [10]: 0 peptides
